Measurements taken from the supplement of paper PMC6757056.
± gives the standard deviation of the averaged measurements.

B1: library; a variant is named by its letters at N, in order (parent)
chain: GCUGUCACCGAGAAACUGUGAAGUAUAUCUUAAACCUGGGCACUUAAAAGAUAUAUGGAGUUAGUAGUGCAACCUGCUCGGUCUGAUGAGUCCNNNNNNGGACGAAACAGC

Columns and labels:
[1] = variants of: B1; test: normalized RNA/DNA level without ligand (relative to sTRSVctl = 100) (log10 (% of sTRSVctl)); HEK293T; ligand: cyclic di-GMP (c-di-GMP-II aptamer); higher = less ribozyme self-cleavage, higher mRNA level; settings: reporter: mCherry (pCS4076), ligand present: no
Method in brief: (§1)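 HEK293T cells were transfected with library plasmids carrying ribozyme switches linked to an mCherry reporter, or an eGFP reporter in some ligand experiments, at 4 µg per well of a 6-well plate, with any ligand added 1 h beforehand. After 72 h, total RNA was extracted with EDTA, reverse-transcribed, amplified, barcoded and sequenced. RNA level was defined as RNA reads over DNA reads, normalized to a spiked-in non-cleaving sequence or to the top-ranked sequences. That value was multiplied by 100 and converted to log10, the top set was 25 sequences, and only sequences with ≥100 DNA reads were retained.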

[2] = variants of: B1; test: normalized RNA/DNA level with ligand (relative to sTRSVctl = 100) (log10 (% of sTRSVctl)); HEK293T; ligand: cyclic di-GMP (c-di-GMP-II aptamer); ligand concentration (+) RNA-Seq: 1 mM; higher = less ribozyme self-cleavage, higher mRNA level; settings: reporter: mCherry (pCS4076), ligand present: yes
Method in brief: as §1

Row | Variant | normalized RNA/DNA level without ligand (log10) [1] | normalized RNA/DNA level with ligand (log10) [2]
1 | GCUGUCACCGAGAAACUGUGAAGUAUAUCUUAAACCUGGGCACUUAAAAGAUAUAUGGAGUUAGUAGUGCAACCUGCUCGGUCUGAUGAGUCCACAGGCGGACGAAACAGC [ACAGGC] | 1.5 ± 0.065 | 1.68 ± 0.11
2 | GCUGUCACCGAGAAACUGUGAAGUAUAUCUUAAACCUGGGCACUUAAAAGAUAUAUGGAGUUAGUAGUGCAACCUGCUCGGUCUGAUGAGUCCACAGGUGGACGAAACAGC [ACAGGU] | 1.42 ± 0.16 | 1.64 ± 0.07
3 | GCUGUCACCGAGAAACUGUGAAGUAUAUCUUAAACCUGGGCACUUAAAAGAUAUAUGGAGUUAGUAGUGCAACCUGCUCGGUCUGAUGAGUCCACAGGGGGACGAAACAGC [ACAGGG] | 1.5 ± 0.11 | 1.58 ± 0.15
4 | GCUGUCACCGAGAAACUGUGAAGUAUAUCUUAAACCUGGGCACUUAAAAGAUAUAUGGAGUUAGUAGUGCAACCUGCUCGGUCUGAUGAGUCCUCAGUUGGACGAAACAGC [UCAGUU] | 1.52 ± 0.16 | 1.74 ± 0.13
5 | GCUGUCACCGAGAAACUGUGAAGUAUAUCUUAAACCUGGGCACUUAAAAGAUAUAUGGAGUUAGUAGUGCAACCUGCUCGGUCUGAUGAGUCCACAGUCGGACGAAACAGC [ACAGUC] | 1.62 ± 0.045 | 1.78 ± 0.11
6 | GCUGUCACCGAGAAACUGUGAAGUAUAUCUUAAACCUGGGCACUUAAAAGAUAUAUGGAGUUAGUAGUGCAACCUGCUCGGUCUGAUGAGUCCACAGUAGGACGAAACAGC [ACAGUA] | 1.31 ± 0.048 | 1.51 ± 0.15
7 | GCUGUCACCGAGAAACUGUGAAGUAUAUCUUAAACCUGGGCACUUAAAAGAUAUAUGGAGUUAGUAGUGCAACCUGCUCGGUCUGAUGAGUCCACAGUGGGACGAAACAGC [ACAGUG] | 1.51 ± 0.11 | 1.68 ± 0.067
8 | GCUGUCACCGAGAAACUGUGAAGUAUAUCUUAAACCUGGGCACUUAAAAGAUAUAUGGAGUUAGUAGUGCAACCUGCUCGGUCUGAUGAGUCCGCAGGGGGACGAAACAGC [GCAGGG] | 1.6 ± 0.05 | 1.74 ± 0.082
9 | GCUGUCACCGAGAAACUGUGAAGUAUAUCUUAAACCUGGGCACUUAAAAGAUAUAUGGAGUUAGUAGUGCAACCUGCUCGGUCUGAUGAGUCCGCAGGCGGACGAAACAGC [GCAGGC] | 1.58 ± 0.032 | 1.71 ± 0.025
10 | GCUGUCACCGAGAAACUGUGAAGUAUAUCUUAAACCUGGGCACUUAAAAGAUAUAUGGAGUUAGUAGUGCAACCUGCUCGGUCUGAUGAGUCCCCAUAUGGACGAAACAGC [CCAUAU] | 1.55 ± 0.041 | 1.73 ± 0.071
11 | GCUGUCACCGAGAAACUGUGAAGUAUAUCUUAAACCUGGGCACUUAAAAGAUAUAUGGAGUUAGUAGUGCAACCUGCUCGGUCUGAUGAGUCCCCAUACGGACGAAACAGC [CCAUAC] | 1.632 ± 0.0016 | 1.78 ± 0.075
12 | GCUGUCACCGAGAAACUGUGAAGUAUAUCUUAAACCUGGGCACUUAAAAGAUAUAUGGAGUUAGUAGUGCAACCUGCUCGGUCUGAUGAGUCCCCAUAGGGACGAAACAGC [CCAUAG] | 1.4 ± 0.17 | 1.66 ± 0.043
13 | GCUGUCACCGAGAAACUGUGAAGUAUAUCUUAAACCUGGGCACUUAAAAGAUAUAUGGAGUUAGUAGUGCAACCUGCUCGGUCUGAUGAGUCCUCAGGUGGACGAAACAGC [UCAGGU] | 1.58 ± 0.12 | 1.76 ± 0.12
14 | GCUGUCACCGAGAAACUGUGAAGUAUAUCUUAAACCUGGGCACUUAAAAGAUAUAUGGAGUUAGUAGUGCAACCUGCUCGGUCUGAUGAGUCCUCAGGGGGACGAAACAGC [UCAGGG] | 1.64 ± 0.023 | 1.81 ± 0.12
15 | GCUGUCACCGAGAAACUGUGAAGUAUAUCUUAAACCUGGGCACUUAAAAGAUAUAUGGAGUUAGUAGUGCAACCUGCUCGGUCUGAUGAGUCCUCAGGCGGACGAAACAGC [UCAGGC] | 1.71 ± 0.027 | 1.84 ± 0.11
16 | GCUGUCACCGAGAAACUGUGAAGUAUAUCUUAAACCUGGGCACUUAAAAGAUAUAUGGAGUUAGUAGUGCAACCUGCUCGGUCUGAUGAGUCCUCAGGAGGACGAAACAGC [UCAGGA] | 1.45 ± 0.071 | 1.67 ± 0.099
17 | GCUGUCACCGAGAAACUGUGAAGUAUAUCUUAAACCUGGGCACUUAAAAGAUAUAUGGAGUUAGUAGUGCAACCUGCUCGGUCUGAUGAGUCCGCAUAAGGACGAAACAGC [GCAUAA] | 1.41 ± 0.19 | 1.61 ± 0.064
18 | GCUGUCACCGAGAAACUGUGAAGUAUAUCUUAAACCUGGGCACUUAAAAGAUAUAUGGAGUUAGUAGUGCAACCUGCUCGGUCUGAUGAGUCCCCAGGUGGACGAAACAGC [CCAGGU] | 1.69 ± 0.061 | 1.82 ± 0.081
19 | GCUGUCACCGAGAAACUGUGAAGUAUAUCUUAAACCUGGGCACUUAAAAGAUAUAUGGAGUUAGUAGUGCAACCUGCUCGGUCUGAUGAGUCCCCAGGGGGACGAAACAGC [CCAGGG] | 1.52 ± 0.025 | 1.77 ± 0.12
20 | GCUGUCACCGAGAAACUGUGAAGUAUAUCUUAAACCUGGGCACUUAAAAGAUAUAUGGAGUUAGUAGUGCAACCUGCUCGGUCUGAUGAGUCCGCAGUCGGACGAAACAGC [GCAGUC] | 1.31 ± 0.064 | 1.51 ± 0.1
21 | GCUGUCACCGAGAAACUGUGAAGUAUAUCUUAAACCUGGGCACUUAAAAGAUAUAUGGAGUUAGUAGUGCAACCUGCUCGGUCUGAUGAGUCCGCAGUGGGACGAAACAGC [GCAGUG] | 1.736 ± 0.0028 | 1.78 ± 0.11
22 | GCUGUCACCGAGAAACUGUGAAGUAUAUCUUAAACCUGGGCACUUAAAAGAUAUAUGGAGUUAGUAGUGCAACCUGCUCGGUCUGAUGAGUCCGCAGUUGGACGAAACAGC [GCAGUU] | 1.45 ± 0.082 | 1.65 ± 0.11
23 | GCUGUCACCGAGAAACUGUGAAGUAUAUCUUAAACCUGGGCACUUAAAAGAUAUAUGGAGUUAGUAGUGCAACCUGCUCGGUCUGAUGAGUCCUCAUACGGACGAAACAGC [UCAUAC] | 1.674 ± 0.011 | 1.81 ± 0.11
24 | GCUGUCACCGAGAAACUGUGAAGUAUAUCUUAAACCUGGGCACUUAAAAGAUAUAUGGAGUUAGUAGUGCAACCUGCUCGGUCUGAUGAGUCCUCAUAAGGACGAAACAGC [UCAUAA] | 1.47 ± 0.065 | 1.67 ± 0.087
25 | GCUGUCACCGAGAAACUGUGAAGUAUAUCUUAAACCUGGGCACUUAAAAGAUAUAUGGAGUUAGUAGUGCAACCUGCUCGGUCUGAUGAGUCCUCAUAGGGACGAAACAGC [UCAUAG] | 1.65 ± 0.02 | 1.77 ± 0.17
26 | GCUGUCACCGAGAAACUGUGAAGUAUAUCUUAAACCUGGGCACUUAAAAGAUAUAUGGAGUUAGUAGUGCAACCUGCUCGGUCUGAUGAGUCCCCAGUGGGACGAAACAGC [CCAGUG] | 1.27 ± 0.14 | 1.48 ± 0.06
